Target: SARS-CoV-2 spike receptor binding domain, wild type (SARS-CoV-2) (UniProt P0DTC2)
Test: ITC

**Q.** How did the Kd turn out when “CC12.1 single chain variable fragment (scFv)” was run?
**A.** 28 nM

**Q.** And the dH?
**A.** 4.8 kcal/mol

**Q.** What about the stoichiometry N of the same substance?
**A.** 1
